Laboratory results: patent US20230212587A1, “Mutant Hydroxyphenylpyruvate Dioxygenase Polypeptide, Encoding Gene Thereof and Use Therefor” (Beijing Dabeinong Biotechnology Co., Ltd., priority 2019, published 2023)
Where a chain is given by its changes, count along the chain named. Names may count otherwise.

B1: HaHPPDm-F372A-02: Helianthus annuus HPPD mutant F372A, SEQ ID NO: 96 (protein)
chain: MGTEATVAAVVAGDESDHPTSAFKLVGFKNFIRTNPMSDKFTVKNFHHIEFWCSDATNTARRFSWGLGMPIIFKSDLSTGNSTHASYLLRSGHLNFLFTAPYSPSISPTTTTASIPTFSHSASRHFTATHGLAVRAIAVEVEDAETAFAVSVANGAKPSSPPVTLGHNDVVLSEVKLYGDVVLRYVSYKNNTNNNNNNDNDNYIFLPGFEAMDKTSSFQELDYGIRRLDHAVGNVPELAPAVDYVKSFTGFHEFAEFTAEDVGTSESGLNSVVLACNSEMVLIPMNEPVYGTKRKSQIQTYLEHNEGAGVQHLALASEDIFRTLREMRKRSGVGGFEFMPSPPPTYYRNLKSRAGDVLSDEQIKECEELGILVDRDDQGTLLQIATKPVGDRPTIFIEIIQRVGCMVKDDEGKVQQKAGCGGFGKGNFSELFKSIEEYEKTLEARSTTAAA
modifications: HaHPPDm-F372A Amino Acid Sequence
B2: BvHPPD-02: native Beta vulgaris HPPD, SEQ ID NO: 105 (protein, listed as Beta vulgaris)
chain: MGTLSPQPQTSPSQFKLVGYSNFIRVNPLSDLFPVKRFHHVEFWCGDATNVSRRFSWGLGMPIVAKSDLSTGNSVHASYLLRSGELHFLFTSPYSPSLSSPSSATIPTFSFSLFTSFLTSHGLAVRAVAVEVQDAEAAFHISVSNGASPVSPPIRLHDGVVLSEVHLYGDVVLRYVSTSSVVDGIFLPGFEEMLGESSFQELDFGLRRLDHAVGNVPELAPAIEYVKKFTGFHEFAEFTTEDVGTSESGLNSAVVANNDETVLFPMNEPVYGTKRKSQIQTYLEHNEGAGVQHLALMSEDIFWTLREMRKRSGLGGFEFMPSPPPTYYRNLRNRAADVLSEEQMKECEELGILVDKDDQGTLLQIFTKPIGDRPTMFIEIIQRIGCMMKDEEGKVYQKGGCGGFGKGNFSELFKSIEEYEKTLERKPIADTNAT
modifications: BvHPPD Amino Acid Sequence
B3: BvHPPDm-F372A-02: Beta vulgaris HPPD mutant F372A, SEQ ID NO: 108 (protein)
chain: B2 chain with F366A
modifications: BvHPPDm-F372A Amino Acid Sequence
B4: NtHPPD-02: native Nicotiana tabacum HPPD, SEQ ID NO: 111 (protein, listed as Nicotiana tabacum)
chain: MGKLETVTTTSAAAADDSSELTTNFKLVGFKNFIRTNPRSDFFSVKSFHHIEFWCGDATNTARRFSWSLGMPIAAKSDLSTGNSVHASYLLRPVSGSLQFLFTAPYSPSISTPSSAAIPSFSTSTHRSFTTTHGLGVRAVALEVENAYTAFSASVSRGAKPMFEPVTIDEQVAMAEVHLYGDVVLRFVSYLKDADNLVFLPGFEAMDETASYKELDYGIRRLDHAVGNVPELGPVVDYIKRFTGFHEFAEFTAEDVGTAESGLNSMVLANNDETVLLPLNEPVYGTKRKSQIQTYLEHNEGAGVQHLALVTEDIFKTLTEMRKRSGVGGFEFMPSPPPTYYKNLKNRAGDVLSDEQILACEELGILVDRDDQGTLLQIFTKPVGDRPTIFIEIIQRIGCMLKDGKGQVYQKGGCGGFGKGNFSELFRSIEEYEKTLEAKQANQVAAA
modifications: NtHPPD Amino Acid Sequence
B5: MsHPPD-02: native Medicago sativa HPPD, SEQ ID NO: 99 (protein, listed as Medicago sativa)
chain: MAIETETQTQTGFKLVGFKNFVRANPKSDRFKVKRFHHVEFWCTDATNTARRFSHGLGMPIVAKSDLSTGNQTHASYLLRSGDLNFLFSAAYSPSISLSSPSSTAAIPTFSASNCFSFSASHGLAVRAVAVEVEDAELAFTTSVNNGAIPSSPPVILENHVKLAEVRLYGDVVLRYVSYNDPNPNQNPNLLFLPGFERVSDESSNSSLDFGIRRLDHAVGNVPELSSAVKYVKDFTGFHEFAEFTAEDVGTSESGLNSVVLANNEETVLLPMNEPVYGTKRKSQIETYLEHNEGAGLQHLALKSEDIFRTLREMRKRSGVGGFEFMPSPPVTYYRNLKNRVGDVLSDEQIKECEELGILVDRDDQGTLLQIFTKPIGDRPTIFIEIIQRVGCMLKDEEGKEYQKGGCGGFGKGNFSELFKSIEEYEKTLETRRTA
modifications: MsHPPD Amino Acid Sequence
B6: MsHPPDm-F372A-02: Medicago sativa HPPD mutant F372A, SEQ ID NO: 102 (protein)
chain: B5 chain with F372A
modifications: MsHPPDm-F372A Amino Acid Sequence
B7: TaHPPD1m-F372A-02: Triticum aestivum ecotype 1 HPPD mutant F372A, SEQ ID NO: 180 (protein)
chain: MMNAHANLALAALAFPAHMPNSKSSHIRSRRTRRPLLPLTMAAHPPIRTNIGMSTHGSASGGGEQAGISSTDRFRMIDFHHVEFWCADAASAAARFSFGLGVPLAAESGLSTGNTAHASHLLHSRSGSLALLFSAPYAQGDAVTASVPSFDADAARRFTADHGLAVRAMAVRVPDAGEAFRTSVDAGARPSFAPAELGHGFELAEVQLYGDVVLRFVSHPDDTAIPFLPGFGSVPSSGATPDYGLTRFDHIVGDVPHLAPVAAYIAGFTGFHEFSRFTADQVGTAESSLNVVVLANNSENVLLTVVEPVHGTKRRSQVQTYLDHHGGPGVQHLAMASNDVLGTLRKIRGRSTMGGFELLPPPPASYYDDVRRRAGDVLSEAQIKGCQELGVRVDKDDHGGVVLQIATKAAGDRPTLLLEFIQRIGCMDKDENGQEYQRGGCGGFGQGNVTELFKSIEDYEKSLDASARLAA
modifications: TaHPPD1m-F372A Amino Acid Sequence

What follows are molecules tested on Arabidopsis thaliana T1 plants (assay: Topramezone tolerance of transgenic Arabidopsis thaliana T1 plants (pesticide damage grade by bleached leaf area, score, resistance evaluation)). Conditions: HPPDs from different species; number of plants (of 16) in this grade; topramezone 25 g ai/ha (1x), 7 DAT.
Assay type: in vivo
In short: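 Herbicide tolerance was judged per plant on a bleaching scale (grade 0 no bleaching to grade 3 fully bleached) 7 DAT. Topramezone doses were 0, 25, 50 and 100 g ai/ha on 18-day-old T1 and wild-type plants.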

Molecule	Classification and statistics of pesticide damage grade Grade 0	Classification and statistics of pesticide damage grade Grade 1	Classification and statistics of pesticide damage grade Grade 2	Classification and statistics of pesticide damage grade Grade 3
B1	0	8	8	0
B2	0	0	0	16
B3	0	6	10	0
B4	0	0	0	16
B5	0	0	0	16
B6	5	7	4	0

Same assay, conditions: HPPDs from different species; number of plants (of 16) in this grade; topramezone 100 g ai/ha (4x), 7 DAT

Molecule	Classification and statistics of pesticide damage grade Grade 0	Classification and statistics of pesticide damage grade Grade 1	Classification and statistics of pesticide damage grade Grade 2	Classification and statistics of pesticide damage grade Grade 3
B1	0	2	12	2
B2	0	0	0	16
B3	0	0	4	12
B4	0	0	0	16
B5	0	0	0	16
B6	0	4	9	3

Same assay, conditions: HPPDs from different species; score for pesticide damage 0-100; topramezone 25 g ai/ha (1x), 7 DAT

Molecule	Scores
B1	50
B2	100
B3	54
B4	100
B5	100
B6	31

Same assay, conditions: HPPDs from different species; score for pesticide damage 0-100; topramezone 100 g ai/ha (4x), 7 DAT

Molecule	Scores
B1	67
B2	100
B3	92
B4	100
B5	100
B6	65

Same assay, conditions: HPPDs from different species; topramezone 25 g ai/ha (1x), 7 DAT

Molecule	Resistance evaluation
B1	poorly resistant (poorly resistant plants (scores 34-67))
B2	non-resistant (non-resistant plants (scores 68-100))
B3	poorly resistant (poorly resistant plants (scores 34-67))
B4	non-resistant (non-resistant plants (scores 68-100))
B5	non-resistant (non-resistant plants (scores 68-100))
B6	moderately resistant (moderately resistant plants (scores 16-33))

Same assay, conditions: HPPDs from different species; topramezone 100 g ai/ha (4x), 7 DAT

Molecule	Resistance evaluation
B1	poorly resistant (poorly resistant plants (scores 34-67))
B2	non-resistant (non-resistant plants (scores 68-100))
B3	non-resistant (non-resistant plants (scores 68-100))
B4	non-resistant (non-resistant plants (scores 68-100))
B5	non-resistant (non-resistant plants (scores 68-100))
B6	poorly resistant (poorly resistant plants (scores 34-67))

Same assay, conditions: topramezone 25 g ai/ha (1x); HPPDs from ecotypes of Triticum aestivum

Molecule	Resistance evaluation	Scores
B7	highly resistant (highly resistant plants (scores 0-15))	0

Same assay, conditions: topramezone 25 g ai/ha (1x); number of plants; HPPDs from ecotypes of Triticum aestivum

Molecule	Classification and statistics of pesticide damage grade: Grade 0	Classification and statistics of pesticide damage grade: Grade 1	Classification and statistics of pesticide damage grade: Grade 2	Classification and statistics of pesticide damage grade: Grade 3
B7	16	0	0	0

Same assay, conditions: topramezone 100 g ai/ha (4x); HPPDs from ecotypes of Triticum aestivum

Molecule	Resistance evaluation	Scores
B7	highly resistant (highly resistant plants (scores 0-15))	2

Same assay, conditions: topramezone 100 g ai/ha (4x); number of plants; HPPDs from ecotypes of Triticum aestivum

Molecule	Classification and statistics of pesticide damage grade: Grade 0	Classification and statistics of pesticide damage grade: Grade 1	Classification and statistics of pesticide damage grade: Grade 2	Classification and statistics of pesticide damage grade: Grade 3
B7	15	1	0	0
